Assay results published in PMC4838861.

Tests used:
[1] = molecular target: yeast V-ATPase c subunit ring (c8c’c”) (S. cerevisiae) (UniProt P25515); test: negative-stain EM with single-particle class averaging; c-ring (1.5 mg/ml) mixed with DOPC, detergent removed with BioBeads for 7 days (incomplete); 4337 images of dumbbell-shaped particles outside the bilayers sorted into 16 classes (EMAN1.9)
[2] = molecular target: yeast V-ATPase c subunit ring (c8c’c”) (S. cerevisiae) (UniProt P25515); test: SEC + other: negative-stain EM; purified c-ring (1 mg) on Superdex 200 in buffer with 0.1% DDM (also in UnDM or DM); peak fractions 48 and 58 viewed by negative-stain EM

stoichiometry N [1]: 2
stoichiometry N [2]: 2
Substance: yeast V-ATPase c subunit ring (c8c’c”) (from UniProt P25515 1-160; P32842 1-164; P23968 1-213) (complex)
